To fix the notation:
B1: Twister Ribozyme (parent)
chain: AACACUGCCAAUGCCGGUCCCAAGCCCGGAUAAAAGUGGAGGGGGCGG

Here are results for 54 variants from the RNAGym collection of RNA variant scans (doi:10.7554/elife.80360).

Variants of B1 are the subject of this series. The experiment in a line: self-cleavage, relative activity (ratio to wild type); higher = more cleavage; co-transcriptional.
Take AACACUGCCAAUGCCGGUCCCAAGCCCGGAUUAAACUGGAGGGGGCGG: the self-cleavage turned out to be 0.435.
Turning to AACACUGCCAAGGCCGGACCCAAGCCCGGAUAAAAGUGGAGGGGGCGG, the self-cleavage came out at 0.46.
Next, AACACUGCCAAUGCCGGUCCCAAGACCGGAUAAAAGUGGAGGGCGCGG: 0.111; AACACUGCCAAUGCCGGUCCGAAGCCCGGAUAAAAUUGGAGGGGGCGG: 0.0888; AACACGGCCAAUGCUGGUCCCAAGCCCGGAUAAAAGUGGAGGGGGCGG: 0.569.
Next, AACACUGCCAAUGUCGGUCCCAAGCCCGGAUAAAAGUGGAGGGGGCGG: 1.1; AACACUGCCAAUACCGGUCCCAAGCCCGGAUAAUAGUGGAGGGGGCGG: 0.64.
Take AACACUGCCAUUGCCGGUCCCAAGCCCGGAUAAAAGUGGAGUGGGCGG: the self-cleavage is 0.33.
Next, GACACUGCCAAUGCCGGUCCCAAGCCCGGAUAUAAGUGGAGGGGGCGG: 0.512; AACACUGCCAAUGCCGGUCCCAAGCCCAGAUAACAGUGGAGGGGGCGG: 0.175.
In the case of AACACUGCCAAUGCCGGUCCCAAGCCCGGAUAAAAGAGGAGGGGGGGG, the self-cleavage turned out to be 0.748.
Next, AACACUGCCAAUGCCGGUACCAAGCCCGGAUAAAAGUGGAGGGGGCCG: 0.155.
Next, AACACUACCAAUGCCGGUCCCAAGCCCCGAUAAAAGUGGAGGGGGCGG: 0.227.
Next, AACACUGCCAAUUCCGGUGCCAAGCCCGGAUAAAAGUGGAGGGGGCGG: 0.0472; AACACUGCCAAUGCCGGUCCGAAGCCCGGUUAAAAGUGGAGGGGGCGG: 0.0816.
On to CACUCUGCCAAUGCCGGUCCCAAGCCCGGAUAAAAGUGGAGGGGGCGG, for which the self-cleavage was determined as 0.116.
Next, AACACUGCUAAUGCCGGUCCCAAGCCCAGAUAAAAGUGGAGGGGGCGG: 0.562.
With AACACUGCCAAUGCCGGUCCCAACCCCGGAGAAAAGUGGAGGGGGCGG, the self-cleavage was found to be 0.0739.
Turning to AACACAGCCAAUGCCGGCCCCAAGCCCGGAUAAAAGUGGAGGGGGCGG, the self-cleavage turned out to be 0.208.
Next, AACAGUGCCAAUUCCGGUCCCAAGCCCGGAUAAAAGUGGAGGGGGCGG: 0.0419; AACACUGCCAAUGCCGGUCCCAAGCCCGGAUAAAAGUAGAGGGGGCUG: 0.814.
Next, AACACUGCCAAUGCCGGUCCCAAGCCCGGAUAAAAGUGGAGAGGACGG: 0.422; AACACUGUCAAUACCGGUCCCAAGCCCGGAUAAAAGUGGAGGGGGCGG: 0.342.
For the variant AACACUGCCAAUGCCGGUCCCAAGCCCUGGUAAAAGUGGAGGGGGCGG, the self-cleavage was found to be 0.999.
Next, AACACUGCCGAAGCCGGUCCCAAGCCCGGAUAAAAGUGGAGGGGGCGG: 1.03.
Next, AACACUGCCAAUGCCGGUCCCAAGCCCGGAUAAAAGUGAAGGGGGCAG: 0.363; AGCACUGCCAAUGCCGGUCCCAAGCCCGGAUAAAAGCGGAGGGGGCGG: 0.0955.
Next, GACACUGCCAAUGCCGGUCCCAAGCCAGGAUAAAAGUGGAGGGGGCGG: 0.189; AACACAGCCAAUGCCGGUCCCAAGCCCGGAUAAAAGUGUAGGGGGCGG: 0.125; AACACUGCCAAUGCCGGUCCCAAGCCGGGAUAAAAGUGGAGGGGGCGU: 0.0985.
As to AACACUGCCAAUGCCGGUGCAAAGCCCGGAUAAAAGUGGAGGGGGCGG, the self-cleavage was 0.0839.
Next, AACACUGCCAAUGCCGGUCCCAAGCCCGGAUAGCAGUGGAGGGGGCGG: 0.108; AACACUGCCAAUGCCGGUCCCAAACCCGGGUAAAAGUGGAGGGGGCGG: 0.125; AACACUGCCAAUGCCGGUCCCAAGCCCGGAUAACAGUGGAGGGCGCGG: 0.156.
Next, AACACUGCGAAUGCCGGUCCCAAGCCCGGAUAAAAGUGGGGGGGGCGG: 0.109.
As to AACACUGCCAGUGCCGGUCCCAAGCCCCGAUAAAAGUGGAGGGGGCGG, the self-cleavage was determined as 0.801.
Next, AACACUGCCAAUGCCGGUCCCAGUCCCGGAUAAAAGUGGAGGGGGCGG: 0.063; AACACGGCCAAUGCCGGUCCCAAGCCCGGAUAAAAGUGGCGGGGGCGG: 0.0854.
Next, AACACUGCCAAUGCCGGUCCCAAGCCCGGAUAAAAGUGGAGUAGGCGG: 0.129.
Turning to AACACUGCCAAUGCCGGUCCCAGGCCCGGAUAAAAGUGGAGGGGACGG, the self-cleavage stood at 0.332.
On to AACACUGCCAAUGCCGGUCCCCAGCGCGGAUAAAAGUGGAGGGGGCGG, for which the self-cleavage is 0.112.
As for AACUCUGCCAAUGCCCGUCCCAAGCCCGGAUAAAAGUGGAGGGGGCGG, the self-cleavage was 0.0898.
Next, AACACUGCCGAUGACGGUCCCAAGCCCGGAUAAAAGUGGAGGGGGCGG: 0.975.
Next, AACACUGCCAAUGCCGGUCCCAAGCCCGGAUAAAAGUCGAGGGGGCGC: 0.977.
Next, AACACUGCCAAUGCCGGUCCCAUGCCCGGAUAAUAGUGGAGGGGGCGG: 0.121.
Take AACACUGACAAUGCCGCUCCCAAGCCCGGAUAAAAGUGGAGGGGGCGG: the self-cleavage came to 0.0615.
Next, AACACUGCCAAUGACGCUCCCAAGCCCGGAUAAAAGUGGAGGGGGCGG: 0.12.
Next, AACACUGCCAAUGCCGGUCCCAAGCCCGGAUAAAAGAGGAGGGGGCAG: 0.457; AACACUGCCAAAGCCGGUCCCAGGCCCGGAUAAAAGUGGAGGGGGCGG: 0.768; AACACUGCCAUUGCCGGUCCCAAGCCCGGAUACAAGUGGAGGGGGCGG: 0.909.
For the variant AACACUGCCAAUGCCGUUCCCAAGCCCGGAUAAAAGUGGAGGUGGCGG, the self-cleavage came to 0.12.
Next, AACACUGCCAAUGCCGGUCCCAGGCCCGGAUAAAAGUGGAGGGAGCGG: 0.604; AACACUGCCAAUGGGGGUCCCAAGCCCGGAUAAAAGUGGAGGGGGCGG: 0.243; AACACUGCCAAUGCCGGUCCCAAGCCGGGAUAAAAGGGGAGGGGGCGG: 0.0978.
